Results on twelve molecules are retold here after patent EP4534554A1 (Corregene Biotechnology Co., Ltd., dated 2025).

Read-outs that look alike come from different tables or passages of the source.

Experiment [1] concerns the target MAGE-A1 target antigen peptide … presented by HLA-A*02:01 on cells (human). Description: cell-based or functional assay.
The target of experiment [2] is T1, MAGE-A1 peptide on HLA-A*02:01 (human).
T1 peptide: KVLEYVIKV
Description: JKR9 reporter + peptide-loaded T2, 16 h; full-length, on cells.

Experiment [3] has as its target MAGE-A1 Dextramer (human). Description: MAGE-A1 Dextramer gradient staining (MFI) of cells expressing the TCR, flow cytometry. Background: In flow cytometry, cells or beads pass a laser one at a time.
Experiment [4] deals with MAGE-A1 Dextramer (human). The experiment in a line: KD-SPR estimated from Dextramer staining MFI by the linear formula of Figure 6; not measured by SPR.
Experiment [5] deals with T1, MAGE-A1 peptide on HLA-A*02:01. The experiment in a line: MAGE-A1 Dextramer gradient on transduced JKR9; unit inferred; full-length, on cells.
For experiment [6] the target is unchanged. Description: KD-SPR estimated from Dextramer MFI by the formula calibrated on gp100 TCRs, not measured; unit inferred; full-length, on cells.
In experiment [7] the target is T2, MAGE-A1 target antigen peptide … presented by HLA-A*02:01 on cells (human). The experiment in a line: cell-based or functional assay. The source holds these as a separate data set.
Experiment [8] deals with T2, MAGE-A1 target antigen peptide … …. Description: cell-based or functional assay. This is another data set of the same source.

B1: A1A2-M01-612 (TCR, V domains shown)
Valpha: GEDVEQSLFLSVREGDSSVINCTYVDPYSTYLYWYKQEPGAGLQLLTYIFSFMDMKQDQRLTVLLNKKDKHLSLRIADTQTGDSAIYFCAGSGGGTDKLIFGTGTRLQVFP
Vbeta: GAVVSQHPSWVICKSGTSVKIECRSLDFEATTMFWYRQFPKQSLMLMATSNEGSKATYEQGVEKDKFLINHASLTLSTLTVTSAHPEDSSFYICSAREPWDPWYEQYFGPGTRLTVT
In experiment [1], B1 returned an EC50 Value (M), JKR9 reporter activation by peptide-loaded T2 cells of 2.3e-08 M. Further, in experiment [2], the EC50 of peptide is 23 nM. The EC50 (in general, the concentration giving half of the maximal effect) in experiment [3] was 0.0475 nM. For the same molecule, the Kd (usually the free concentration of one partner at which half of the binding sites on the other are occupied at equilibrium, for simple one-to-one binding) is 0.00294 nM in experiment [4] and ~0.00294 nM in experiment [6]. The “EC50 of Dextramer staining” value in experiment [5] stood at 0.0475 nM.

B2: A1A2-M01-624 (TCR, V domains shown)
Valpha: GEDVEQSLFLSVREGDSSVINCTYQYGMSTYLYWYKQEPGAGLQLLTYIFSFMDMKQDQRLTVLLNKKDKHLSLRIADTQTGDSAIYFCAGSGGGTDKLIFGTGTRLQVFP
Vbeta: GAVVSQHPSWVICKSGTSVKIECRSLDFEATTMFWYRQFPKQSLMLMATTDYGSKATYEQGVEKDKFLINHASLTLSTLTVTSAHPEDSSFYICSAREPGQGPWEQYFGPGTRLTVT
As to B2, in experiment [1], the EC50 Value (M), JKR9 reporter activation by peptide-loaded T2 cells turned out to be 2.59e-08 M. Moreover, the EC50 of peptide in experiment [2] was 25.9 nM. The EC50 in experiment [3] amounted to 0.116 nM. The Kd in experiment [4] was 0.0651 nM; in experiment [6] it was ~0.0651 nM. In addition, the “EC50 of Dextramer staining” value in experiment [5] was found to be 0.116 nM.

B3: A1A2-M01-616 (TCR, V domains shown)
Valpha: GEDVEQSLFLSVREGDSSVINCTYTDSSQTYLYWYKQEPGAGLQLLTYIFAFMQMKQDQRLTVLLNKKDKHLSLRIADTQTGDSAIYFCAGSGGGTDKLIFGTGTRLQVFP
Vbeta: GAVVSQHPSWVICKSGTSVKIECRSLDFEATTMFWYRQFPKQSLMLMATTDYGSKATYEQGVEKDKFLINHASLTLSTLTVTSAHPEDSSFYICSAREPGQGPWEQYFGPGTRLTVT
The molecule B3 yielded an EC50 Value (M), JKR9 reporter activation by peptide-loaded T2 cells in experiment [1] of 3.23e-08 M. The EC50 of peptide in experiment [2] was 32.3 nM. Besides, the EC50 in experiment [3] was found to be 0.0808 nM. Moreover, the Kd was 0.0186 nM in experiment [4] and ~0.0186 nM in experiment [6]. Moreover, the “EC50 of Dextramer staining” value in experiment [5] was found to be 0.0808 nM.

B4: A1A2-M01-620 (TCR, V domains shown)
Valpha: GEDVEQSLFLSVREGDSSVINCTYTDSSQTYLYWYKQEPGAGLQLLTYIFSNMDMKQDQRLTVLLNKKDKHLSLRIADTQTGDSAIYFCAGSGGGTDKLIFGTGTRLQVFP
Vbeta: GAVVSQHPSWVICKSGTSVKIECRSLDFEATTMFWYRQFPKQSLMLMATTDYGSKATYEQGVEKDKFLINHASLTLSTLTVTSAHPEDSSFYICSAREPGQAWSDQYFGPGTRLTVT
The molecule B4 yielded an EC50 Value (M), JKR9 reporter activation by peptide-loaded T2 cells in experiment [1] of 2.5e-08 M. In addition, the EC50 of peptide in experiment [2] is 25 nM. Further, the EC50 in experiment [3] turned out to be 0.212 nM. In addition, the Kd in experiment [4] was 0.524 nM; in experiment [6], ~0.524 nM. Moreover, in experiment [5], the “EC50 of Dextramer staining” value stood at 0.212 nM.

B5: A1A2-M01-621 (TCR, V domains shown)
Valpha: GEDVEQSLFLSVREGDSSVINCTYTDSEFTYLYWYKQEPGAGLQLLTYIFAFESMKQDQRLTVLLNKKDKHLSLRIADTQTGDSAIYFCAGSGGGTDKLIFGTGTRLQVFP
Vbeta: GAVVSQHPSWVICKSGTSVKIECRSLDFEATTMFWYRQFPKQSLMLMATTDYGSKATYEQGVEKDKFLINHASLTLSTLTVTSAHPEDSSFYICSAREPGQGPWEQYFGPGTRLTVT
In experiment [1], B5 gave an EC50 Value (M), JKR9 reporter activation by peptide-loaded T2 cells of 3.57e-08 M. Moreover, the EC50 of peptide in experiment [2] was 35.7 nM. Also, the EC50 in experiment [3] was 0.121 nM. Further, the equilibrium dissociation constant (Kd) in experiment [4] was 0.0747 nM; in experiment [6], ~0.0747 nM. In addition, the “EC50 of Dextramer staining” value in experiment [5] is 0.121 nM.

B6: A1A2-M01-617 (TCR, V domains shown)
Valpha: GEDVEQSLFLSVREGDSSVINCTYPDMFSTYLYWYKQEPGAGLQLLTYIFAFMQMKQDQRLTVLLNKKDKHLSLRIADTQTGDSAIYFCAGSGGGTDKLIFGTGTRLQVFP
Vbeta: GAVVSQHPSWVICKSGTSVKIECRSLDFEATTMFWYRQFPKQSLMLMATSNEGDQATYEQGVEKDKFLINHASLTLSTLTVTSAHPEDSSFYICSAREPGQGPWEQYFGPGTRLTVT
B6 returned an EC50 Value (M), JKR9 reporter activation by peptide-loaded T2 cells in experiment [1] of 2.61e-08 M. Also, the EC50 of peptide in experiment [2] is 26.1 nM. The same molecule registered an EC50 in experiment [3] of 0.103 nM. The Kd is 0.0432 nM in experiment [4] and ~0.0432 nM in experiment [6]. For the same molecule, in experiment [5], the “EC50 of Dextramer staining” value turned out to be 0.103 nM.

B7: A1A2-M01-622 (TCR, V domains shown)
Valpha: GEDVEQSLFLSVREGDSSVINCTYTDSSSTYLYWYKQEPGAGLQLLTYIFAFESMKQDQRLTVLLNKKDKHLSLRIADTQTGDSAIYFCAGSGGGTDKLIFGTGTRLQVFP
Vbeta: GAVVSQHPSWVICKSGTSVKIECRSLDFEATTMFWYRQFPKQSLMLMATTDYGSKATYEQGVEKDKFLINHASLTLSTLTVTSAHPEDSSFYICSAREPGQGPWEQYFGPGTRLTVT
B7 returned an EC50 Value (M), JKR9 reporter activation by peptide-loaded T2 cells in experiment [1] of 1.76e-08 M. Also, the EC50 of peptide in experiment [2] was 17.6 nM. The EC50 in experiment [3] is 0.0911 nM. Further, the figures for the Kd in experiment [4] and in experiment [6] were 0.028 nM and ~0.028 nM, respectively. Besides, the “EC50 of Dextramer staining” value in experiment [5] stood at 0.0911 nM.

B8: A1A2-M01-623 (TCR, V domains shown)
Valpha: GEDVEQSLFLSVREGDSSVINCTYTDSSQTYLYWYKQEPGAGLQLLTYIFIFQAMKQDQRLTVLLNKKDKHLSLRIADTQTGDSAIYFCAGSGGGTDKLIFGTGTRLQVFP
Vbeta: GAVVSQHPSWVICKSGTSVKIECRSLDFEATTMFWYRQFPKQSLMLMATTDYGSKATYEQGVEKDKFLINHASLTLSTLTVTSAHPEDSSFYICSAREPGQGPWEQYFGPGTRLTVT
Turning to B8, the EC50 Value (M), JKR9 reporter activation by peptide-loaded T2 cells in experiment [1] came to 3.06e-08 M. The EC50 of peptide in experiment [2] came to 30.6 nM. This molecule came in with an EC50 in experiment [3] of 0.187 nM. Besides, the results for the dissociation constant (Kd) in experiment [4] and in experiment [6] were 0.337 nM and ~0.337 nM, respectively. Moreover, the “EC50 of Dextramer staining” value in experiment [5] was found to be 0.187 nM.

B9: A1A2-M01-614 (TCR, V domains shown)
Valpha: GEDVEQSLFLSVREGDSSVINCTYSDMLSTYLYWYKQEPGAGLQLLTYIFIFQAMKQDQRLTVLLNKKDKHLSLRIADTQTGDSAIYFCAGSGGGTDKLIFGTGTRLQVFP
Vbeta: GAVVSQHPSWVICKSGTSVKIECRSLDFEATTMFWYRQFPKQSLMLMATTDYGSKATYEQGVEKDKFLINHASLTLSTLTVTSAHPEDSSFYICSAREPGQGPWEQYFGPGTRLTVT
In experiment [1], B9 registered an EC50 Value (M), JKR9 reporter activation by peptide-loaded T2 cells of 2.94e-08 M. For the same molecule, in experiment [2], the EC50 of peptide is 29.4 nM. Moreover, the EC50 in experiment [3] amounted to 0.163 nM. In addition, the Kd was 0.208 nM in experiment [4] and ~0.208 nM in experiment [6]. The “EC50 of Dextramer staining” value in experiment [5] came out at 0.163 nM.

B10: A1A2-M01-613 (TCR, V domains shown)
Valpha: GEDVEQSLFLSVREGDSSVINCTYTDSSLTYLYWYKQEPGAGLQLLTYIFSFMDMKQDQRLTVLLNKKDKHLSLRIADTQTGDSAIYFCAGSGGGTDKLIFGTGTRLQVFP
Vbeta: GAVVSQHPSWVICKSGTSVKIECRSLDFQATTMFWYRQFPKQSLMLMATTDYGSKATYEQGVEKDKFLINHASLTLSTLTVTSAHPEDSSFYICSAREPGQGPWEQYFGPGTRLTVT
B10 gave an EC50 Value (M), JKR9 reporter activation by peptide-loaded T2 cells in experiment [1] of 2.62e-08 M. In addition, in experiment [2], the EC50 of peptide was 26.2 nM. The EC50 in experiment [3] amounted to 0.0961 nM. In addition, the Kd is 0.0338 nM in experiment [4] and ~0.0338 nM in experiment [6]. The “EC50 of Dextramer staining” value in experiment [5] came out at 0.0961 nM.

B11: A1A2-M01-625 (TCR, V domains shown)
Valpha: GEDVEQSLFLSVREGDSSVINCTYTDSSMTYLYWYKQEPGAGLQLLTYIFAFESMKQDQRLTVLLNKKDKHLSLRIADTQTGDSAIYFCAGSGGGTDKLIFGTGTRLQVFP
Vbeta: GAVVSQHPSWVICKSGTSVKIECRSLDFEATTMFWYRQFPKQSLMLMATTDYGSKATYEQGVEKDKFLINHASLTLSTLTVTSAHPEDSSFYICSAREPGQGPWEQYFGPGTRLTVT
Take B11: the EC50 Value (M), JKR9 reporter activation by peptide-loaded T2 cells in experiment [1] came to 3.52e-08 M. Besides, the EC50 of peptide in experiment [2] was 35.1 nM. In experiment [3], this molecule had an EC50 of 0.0852 nM. Also, the Kd in experiment [4] is 0.0222 nM; in experiment [6], ~0.0222 nM. In experiment [5], the “EC50 of Dextramer staining” value came to 0.0852 nM.

B12: ht27WT (TCR, V domains shown)
V domain 1: RGEDVEQSLFLSVREGDSSVINCTYTDSSSTYLYWYKQEPGAGLQLLTYIFSNMDMKQDQRLTVLLNKKDKHLSLRIADTQTGDSAIYFCAGSGGGTDKLIFGTGTRLQVFP
V domain 2: GAVVSQHPSWVICKSGTSVKIECRSLDFQATTMFWYRQFPKQSLMLMATSNEGSKATYEQGVEKDKFLINHASLTLSTLTVTSAHPEDSSFYICSAREPGQGPYEQYFGPGTRLTVTE
As for B12, the figures for the “EC50 Value (M), JKR9 reporter activation by peptide-loaded T2 cells” value in experiment [7] and in experiment [8] were 1.67e-05 M and 2.31e-06 M, respectively.
